Assay results: patent US20130224191A1, “NOTUM PROTEIN MODULATORS AND METHODS OF USE” (priority 2010, published 2013)
“Also recorded” adds a separate entry of the source.

Legend:
[1] = target: T1, Notum being secreted from the 293-Notum cells (Homo sapiens, UniProt Q6P988); test: Co-culture Wnt3A assay, effector cells with 293.TCF reporter cells; format: cell-based; conditions: antibody 10 μg/mL
T1 construct: expressed in transfected cells; host or cells: 293T (293.Notum)
T1 sequence (Q6P988 20-496): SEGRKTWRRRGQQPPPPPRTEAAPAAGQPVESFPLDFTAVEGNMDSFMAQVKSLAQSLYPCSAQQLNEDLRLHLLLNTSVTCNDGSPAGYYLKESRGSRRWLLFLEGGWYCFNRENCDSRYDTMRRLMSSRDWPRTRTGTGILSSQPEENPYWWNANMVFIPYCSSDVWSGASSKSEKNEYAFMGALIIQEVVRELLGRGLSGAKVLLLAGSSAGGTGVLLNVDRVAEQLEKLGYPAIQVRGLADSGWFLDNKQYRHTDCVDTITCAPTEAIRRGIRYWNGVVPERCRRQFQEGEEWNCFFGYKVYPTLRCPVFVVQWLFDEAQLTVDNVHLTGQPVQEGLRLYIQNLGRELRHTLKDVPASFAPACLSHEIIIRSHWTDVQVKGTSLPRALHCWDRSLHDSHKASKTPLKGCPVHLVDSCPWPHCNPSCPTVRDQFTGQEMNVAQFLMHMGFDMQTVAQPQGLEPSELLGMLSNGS
Procedure: In order to more closely model the behavior of Notum producing cells in vivo, co-culture experiments were performed in which effector cells, either parental 293T cells (293.null) or 293T cells expressing soluble Notum (i.e., 293.Notum cells), were mixed in varying ratios with reporter 293.TCF cells. Notum activity or inhibition in the presence of antibodies was then determined from these cell mixtures after treatment with Wnt3A CM. Briefly, three different ratios of effector to reporter cells were tested: 2:1, 1:[…], corresponding to 5×10^4: 2.5×10^4, 2.5×10^4: 2.5×10^4 cells, or 2.5×10^41.0×10^4 cells per well of a 96-well plate by mixing the cells in 50 μL serum free medium per well prior to plating.
For the antibody antagonism experiments, the mixture of cells was plated into wells containing 25 μL of DMEM+0.2% FBS and antibody at a final concentration of 10 μg/mL. Twenty-three hours after plating, 25 μL of Wnt3A or control L-cell CM were added to each well. Eighteen hours after addition of CM, 100 μL of One-Glo solution (ProMega Corp.) was added to each well. The contents of each well were then mixed thoroughly to lyse the cells, 100 μL of lysate transferred to black 96-well plates, and the luminescence read after 5 minutes.

[2] = test system: mouse lineage-depleted NTX tumor cells from SCRx-CR4; test: Cell survival/proliferation, CellTiterGlo, SCRx-CR4; format: cell-based, human; conditions: antibody 10 μg/mL, versus MOPC isotype control
Procedure: To determine whether Notum protein impacts cell proliferation and/or apoptosis of human colorectal cancer cells, HCT-116 cells or mouse lineage-depleted NTX tumor cells (i.e. human tumor cells) were plated as described below and exposed to recombinant hNotum (e.g. hNotum-His or hNotum-hFc) and anti-Notum antibodies. Cell numbers were then assessed 12-14 days later.
Cells were then incubated for 14 days at 37° C., 5% CO2 and 5% O2 and the number of viable cells was assessed using Promega's CellTiterGlo assay kit per the manufacturer's instructions. For the HCT-116 cell line (a commercially available colorectal tumor cell line), cells were plated at 2,000 cells per well in DMEM+1% FBS, followed 24-hours later by the addition of serum free DMEM containing recombinant human Notum in the presence or absence of monoclonal antibodies SC2.D2.2 or SC2.10B3. HCT-116 cells were then incubated for 12 days at 37° C., 5% CO2 and cell viability was assessed with Promega's CellTiterGlo assay kit. Higher readings are indicative of higher viable cell counts.

Notum [3] = target: T2, Notum (Homo sapiens, UniProt Q6P988); test: Bio-layer interferometry on ForteBIO RED; format: binding; conditions: 250, 125 and 62.5 nM antigen
T2 sequence (Q6P988 20-496): T1 sequence (Q6P988 20-496)
Procedure: Three methods were used to characterize the affinity of humanized SC2.D2.2 relative to its analogous mAb with the murine variable region. First, binding signal was measured for a fixed amount of antibody probed against serial dilutions of antigen in an ELISA format. […] Second, the affinity of murine SC2.D2.2 was measured by Biacore using surface plasmon resonance (SPR) to provide the results set forth in FIG. 32A. Based on a concentration series of 12.5, 6.25, 3.125, 1.5625, 0.78125 nM and using a 1:1 Langmuir binding model, the Kd of the antibody binding to antigen was estimated to be less than 0.1 nM. Long off-rates for this interaction made accurate determination of affinity through kinetics difficult. The murine antibody was then directly compared to the humanized derivative using bio-layer interferometry analysis on a ForteBIO RED (ForteBIO, Inc.) with a concentration series of 250, 125, and 62.5 nM antigen.

Notum [4] = target: T2, Notum; test: Neutralization of human Notum activity in 293.TCF luciferase assay; format: cell-based; design: 8x-His; Strep-tag II; IgK signal peptide/leader of the pSEC-CAG vector (N); made in house; host or cells: HEK293T (adherent) / suspension 293 cells
Procedure: Using the 293.TCF cells described above, supernatants from hybridomas and/or purified antibodies shown to bind Notum by ELISA assays (Example 9) were screened for their ability to neutralize hNotum-His or hNotum-Fc activity as follows. 2.5×10^4 293.TCF cells were plated per well of a 96-well tissue culture plate in 50 μL of serum-free medium. After 23 hours of serum starvation, 10 μL of DMEM+0.2% FBS containing various Notum proteins at various concentrations were mixed with either 15 μL of supernatant from the hybridoma, or 15 μL of purified antibody at various concentrations, and allowed to incubate for 5 minutes at room temperature. The 25 μL antibody:Notum mixture was then added to the 293.TCF cells. After 1 hour, 25 μL of Wnt3A or control L-cell CM were added to each well. Eighteen hours after addition of CM, 100 μL of One-Glo solution (ProMega Corp.) was added to each well. The contents of each well were then mixed thoroughly to lyse the cells, 100 μL of lysate transferred to black 96-well plates, and the luminescence read after 5 minutes. […]

B1: SC2.D2.2 (antibody, V domains shown)
VH: DVQLVESGGGLVQPGGSRKISCAASGFTFSSYGMHWVRQAPEKGLEWVAYISSSTVTTYYADTVKGRFTISRDNANNTLFLQMTSLRSEDTAMYYCSRQNWDGGYFDVWGAGTTVTVSS
VL: DIVLTQSLASLAVSLGQRATISCRASKSVSSSGYSYMHWYQQKPGQPPKLLIYLASNLESGVPARFSGSGSGTDFTLNIHPVEEEDAATYYCQHSRALPLTFGAGTKLELKR
notes: also called murine SC2.D2.2
Wnt3A-induced luciferase ([1]; co-cultures of 293.Notum and 293.TCF cells): increases the amount of Wnt3A-induced luciferase | induction of luciferase activity by Wnt3A CM ([1]; co-cultures of 293.null and 293.TCF cells): little effect | effect on proliferation / cell numbers [2]: significantly less proliferation | affinity, binding curves (Notum [3]): excellent affinity | inhibition of human Notum activity (Notum [4]): acts in a concentration dependent manner to antagonize the effects of added hNotum-His; also recorded: can inhibit the activity of human Notum in a dose dependent fashion; also recorded: specifically inhibit the human version of Notum
